The results in this text go back to IntAct's records for PubMed 23851574.

B1: AP-1 complex subunit gamma-like 2 (Homo sapiens), O75843 (parent)
chain: MVVPSLKLQDLIEEIRGAKTQAQEREVIQKECAHIRASFRDGDPVHRHRQLAKLLYVHMLGYPAHFGQMECLKLIASSRFTDKRVGYLGAMLLLDERHDAHLLITNSIKNDLSQGIQPVQGLALCTLSTMGSAEMCRDLAPEVEKLLLQPSPYVRKKAILTAVHMIRKVPELSSVFLPPCAQLLHERHHGILLGTITLITELCERSPAALRHFRKVVPQLVHILRTLVTMGYSTEHSISGVSDPFLQVQILRLLRILGRNHEESSETMNDLLAQVATNTDTSRNAGNAVLFETVLTIMDIRSAAGLRVLAVNILGRFLLNSDRNIRYVALTSLLRLVQSDHSAVQRHRPTVVECLRETDASLSRRALELSLALVNSSNVRAMMQELQAFLESCPPDLRADCASGILLAAERFAPTKRWHIDTILHVLTTAGTHVRDDAVANLTQLIGGAQELHAYSVRRLYNALAEDISQQPLVQVAAWCIGEYGDLLLAGNCEEIEPLQVDEEEVLALLEKVLQSHMSLPATRGYALTALMKLSTRLCGDNNRIRQVVSIYGSCLDVELQQRAVEYDTLFRKYDHMRAAILEKMPLVERDGPQADEEAKESKEAAQLSEAAPVPTEPQASQLLDLLDLLDGASGDVQHPPHLDPSPGGALVHLLDLPCVPPPPAPIPDLKVFEREGVQLNLSFIRPPENPALLLITITATNFSEGDVTHFICQAAVPKSLQLQLQAPSGNTVPARGGLPITQLFRILNPNKAPLRLKLRLTYDHFHQSVQEIFEVNNLPVESWQ
B2: Large envelope protein (Hepatitis B virus genotype D subtype adw (isolate United Kingdom/adyw/1979)), P03139-1 (parent)
chain: MGQNLSTSNPLGFFPDHQLDPAFRANTNNPDWDFNPNKDTWPDANKVGAGAFGLGFTPPHGGLLGWSPQAQGIMQTLPANPPPASTNRQSGRQPTPLSPPLRTTHPQAMHWNSTTFHQTLQDPRVRGLYFPAGGSSSGTVNPVPTTTSPISSIFSRIGDPALNMENITSGFLGPLLVLQAGFFLLTRILTIPQSLDSWWTSLNFLGGTTVCLGQNSQSPISNHSPTSCPPTCPGYRWMCLRRFIIFLFILLLCLIFLLVLLDYQGMLPVCPLIPGSSTTSTGSCRTCTTPAQGISMYPSCCCTKPSDGNCTCIPIPSSWAFGKFLWEWASARFSWLSLLVPFVQWFVGLSPIVWLSVIWMMWYWGPSLYSILSPFLPLLPIFFCLWAYI
partner: B1 chain

One test covers variants of B1. The following applies: with S.
In the case of R760A, the “effect of a mutation on the interaction” value is given as “decreasing interaction strength”.
On the same count and under the same terms, next, K719Q: “decreasing interaction strength”; P754A: “decreasing interaction strength”; S720A: “decreasing interaction strength”.
The same measure, in the same setting: then R756A, with “decreasing interaction strength”; and R756Q, with “decreasing interaction strength”; and A716G, with “decreasing interaction strength”.

The variants in the next test derive from B2. The following applies: with ap1g2_human AP1G2, O75843.
For D33A, the “effect of a mutation on the interaction” value was “decreasing interaction strength”.
Same read-out and setting: then F34A, with “decreasing interaction strength”; and W32A, with “decreasing interaction strength”.
With D31A, the “effect of a mutation on the interaction” value was “decreasing interaction strength”.
